{
  "source": "paper doi:10.1101/2023.10.05.561114",
  "about": "“Conditional Requirement for Dimerization of the Membrane-Binding Module of BTK” (bioRxiv, 2023)",
  "proteins": {"B1": {"name": "BTK PH–TH module (residues 1–171), wild type, with C-terminal mNeonGreen (domain or fragment, human, UniProt Q06187 1-171, looked up)", "chain": "MAAVILESIFLKRSQQKKKTSPLNFKKRLFLLTVHKLSYYEYDFERGRRGSKKGSIDVEKITCVETVVPEKNPPPERQIPRRGEESSEMEQISIIERFPYPFQVVYDEGPLYVFSPTEELRKRWIHQLKNVIRYNSDLVQKYHPCFWIDGQYLCCSQTAKNAMGCQILENR", "notes": "Bruton's tyrosine kinase (BTK), human, pleckstrin-homology and tec-homology domains (PH–TH module), residues 1–171; ZnCl2 was added during expression; also called PH–TH^WT; source: E. coli BL21-DE3, purified (HisTrap, SUMO protease cleavage, second HisTrap, Superdex 75); not shown: His6, N-terminal, cleaved; SUMO, N-terminal, cleaved; mNeonGreen, C-terminal, kept"}},
  "biological_target": "the molecule itself",
  "test": "fluorescence correlation spectroscopy (FCS); protein adsorbed on supported lipid bilayers with 96% DOPC and 4% PIP3; two-dimensional diffusion rate measured against surface density; fit to a 2D diffusion model; imaging buffer HBSS with 0.01% w/v beta-casein, with scavenging mixture",
  "data": [
    {"protein": "B1", "values": [
      {"measurement": "binding result", "result": "binds"}
    ]}
  ]
}
